T1: 重组人IL-11 (recombinant human interleukin-11) (human, UniProt P20809 22-199)
T1 construct: Called recombinant human IL-11 as immunogen; the assays say only IL-11; also called IL-11抗原; IL-11-Biotin
T1 sequence (looked up): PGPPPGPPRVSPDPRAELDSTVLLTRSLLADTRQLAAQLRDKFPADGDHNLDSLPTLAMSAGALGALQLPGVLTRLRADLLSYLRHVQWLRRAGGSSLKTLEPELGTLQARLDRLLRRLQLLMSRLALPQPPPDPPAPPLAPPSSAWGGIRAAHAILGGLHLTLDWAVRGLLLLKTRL


Key:
[1] = biological target: T1, 重组人IL-11 (recombinant human …); assay: ELISA, IL-11 coated on plate
[2] = biological target: T1, 重组人IL-11 (recombinant human …); assay: cell-based or functional assay
[3] = biological target: T1, 重组人IL-11 (recombinant human …); assay: ELISA, IL-11 coated on plate; remark: listed apart in the source
[4] = biological target: T1, 重组人IL-11 (recombinant human …); assay: SPR (Biacore), antibody captured on anti-human IgG CM5 chip, IL-11 as analyte
[5] = biological target: T1, 重组人IL-11 (recombinant human …); assay: FACS, blocking of IL-11-biotin binding to 293T-IL-11Rα/gp130 cells

Row | binding result [1] | Kd [4] [nM] | koff [4] [s⁻¹] | kon [4] [M⁻¹ s⁻¹] | Binder | also measured
1 | binds |  |  |  | 1D12 (antibody, V domains shown, Mouse hybridoma antibody purified on Protein A) VH: EVQLQQFGAELVKPGAAVKISCKASGYTFTDYNMDWVRQSHGKSLEWIGEINPNYDSTRYNQKFKGKATLTVDKSSSTAYMELRSLTSEDTAVYYCARSDYYAMDYWGQGTSVTVSS VL: SIVMTQTPSFLLVSAGDRVTITCKASQSVSNDVAWYQQKPGQSPKLLIYYASNRFTGVPDRFTGSGFGTDFTFTISTVQTGDLAVYFCRQDYISPYTFGGGTKLEIK | 
2 | binds |  |  |  | 6B9 (antibody, V domains shown, Mouse hybridoma antibody purified on Protein A) VH: EVQLVESGGGSVKPGGSLKLSCAASGFTFSNYAMSWVRQSPEKRLEWVAEISNGGSYTYYPDTVTGRFTISRDNAKNTLYLEMSSLRSEDTAMYYCVRHYDGYYGGILDFAMDYWGQGTSVTVSS VL: DIQMTQSPSSLSASLGGKVTITCKASQDINKCIAWYQHKPGKGPRLLIHYTSTLQPGIPSRFSGSGSGRDYSFTISNLEPEDIATYYCLQYDYLHTFGGGTKLEIK | 
3 |  | 0.0158 | 4.66e-05 | 2.96e+06 | hu16E12-hIgG4 (antibody, V domains shown, also called 16E12人源化抗体; hu16E12 Wild Type) VH: QVQLVQSGAEVKKPGASVKVSCKASGYTFTSYYMYWVRQAPGQGLEWIGEINPSNGGTDFNEKFKNRVTMTVDTSISTAYMELSRLRSDDTAVYYCTREEIHYGYDKGFAYWGQGTLVTVSS VL: not shown | IC50, STAT3 luciferase reporter in DLD1-IL-11R-pSTAT3-Luc cells [2]: 1.16 ng/mL; EC50 [3]: 0.0624 µg/mL; IC50 [5]: 0.0679 µg/mL
4 |  | 0.00187 | 3.91e-06 | 2.09e+06 | hu16E12 L94H (antibody, V domains shown) VH: QVQLVQSGAEVKKPGASVKVSCKASGYTFTSYYMYWVRQAPGQGLEWIGEINPSNGGTDFNEKFKNRVTMTVDTSISTAYMELSRLRSDDTAVYYCTREEIHYGYDKGFAYWGQGTLVTVSS VL: not shown | 
5 |  | 0.00387 | 9.32e-06 | 2.41e+06 | hu16E12 G55V (antibody, V domains shown, CDR mutant of hu16E12 (IgG4); placed on VH (CDR2, probably Kabat) by inference) VH: QVQLVQSGAEVKKPGASVKVSCKASGYTFTSYYMYWVRQAPGQGLEWIGEINPSNVGTDFNEKFKNRVTMTVDTSISTAYMELSRLRSDDTAVYYCTREEIHYGYDKGFAYWGQGTLVTVSS VL: not shown | 
6 |  | 0.0363 | 8.54e-05 | 2.35e+06 | hu16E12 E61Q N65G (antibody, V domains shown, CDR mutant of hu16E12 (IgG4); placed on VH (CDR2, probably Kabat) by inference) VH: QVQLVQSGAEVKKPGASVKVSCKASGYTFTSYYMYWVRQAPGQGLEWIGEINPSNGGTDFNQKFKGRVTMTVDTSISTAYMELSRLRSDDTAVYYCTREEIHYGYDKGFAYWGQGTLVTVSS VL: not shown | 
7 |  | 0.012 | 3.56e-05 | 2.96e+06 | hu16E12 G55A (antibody, V domains shown, CDR mutant of hu16E12 (IgG4); placed on VH (CDR2, probably Kabat) by inference) VH: QVQLVQSGAEVKKPGASVKVSCKASGYTFTSYYMYWVRQAPGQGLEWIGEINPSNAGTDFNEKFKNRVTMTVDTSISTAYMELSRLRSDDTAVYYCTREEIHYGYDKGFAYWGQGTLVTVSS VL: not shown | 
8 |  | 0.0245 | 7e-05 | 2.86e+06 | hu16E12 N54S (antibody, V domains shown, CDR mutant of hu16E12 (IgG4); placed on VH (CDR2, probably Kabat) by inference) VH: QVQLVQSGAEVKKPGASVKVSCKASGYTFTSYYMYWVRQAPGQGLEWIGEINPSSGGTDFNEKFKNRVTMTVDTSISTAYMELSRLRSDDTAVYYCTREEIHYGYDKGFAYWGQGTLVTVSS VL: not shown | 
9 |  | 0.0363 | 0.000101 | 2.78e+06 | hu16E12 N54Q (antibody, V domains shown, CDR mutant of hu16E12 (IgG4); placed on VH (CDR2, probably Kabat) by inference) VH: QVQLVQSGAEVKKPGASVKVSCKASGYTFTSYYMYWVRQAPGQGLEWIGEINPSQGGTDFNEKFKNRVTMTVDTSISTAYMELSRLRSDDTAVYYCTREEIHYGYDKGFAYWGQGTLVTVSS VL: not shown | 
10 |  | 0.0157 | 5.76e-05 | 3.68e+06 | hu16E12 K64Q N65G (antibody, V domains shown, CDR mutant of hu16E12 (IgG4); placed on VH (CDR2, probably Kabat numbering) by inference) VH: QVQLVQSGAEVKKPGASVKVSCKASGYTFTSYYMYWVRQAPGQGLEWIGEINPSNGGTDFNEKFQGRVTMTVDTSISTAYMELSRLRSDDTAVYYCTREEIHYGYDKGFAYWGQGTLVTVSS VL: not shown | 
11 |  | 0.0268 | 7.51e-05 | 2.81e+06 | hu16E12 N60A N65G (antibody, V domains shown, CDR mutant of hu16E12 (IgG4); placed on VH (CDR2, probably Kabat) by inference) VH: QVQLVQSGAEVKKPGASVKVSCKASGYTFTSYYMYWVRQAPGQGLEWIGEINPSNGGTDFAEKFKGRVTMTVDTSISTAYMELSRLRSDDTAVYYCTREEIHYGYDKGFAYWGQGTLVTVSS VL: not shown | 
12 |  | 0.0189 | 5.25e-05 | 2.78e+06 | hu16E12 N65G (antibody, V domains shown, CDR mutant of hu16E12 (IgG4); placed on VH (CDR2, probably Kabat) by inference) VH: QVQLVQSGAEVKKPGASVKVSCKASGYTFTSYYMYWVRQAPGQGLEWIGEINPSNGGTDFNEKFKGRVTMTVDTSISTAYMELSRLRSDDTAVYYCTREEIHYGYDKGFAYWGQGTLVTVSS VL: not shown | 
13 | binds |  |  |  | 16E12 (antibody, V domains shown, Mouse hybridoma antibody purified on Protein A; also called 鼠源16E12) VH: QVQLQQSGAELVKPGASVKLSCKASGYTFTSYYMYWVKQRPGQGLEWIGEINPSNGGTDFNEKFKNKATLTVDKSSSTAYMQLSSLTSEDSAVYYCTREEIHYGYDKGFAYWGQGTLVTVSA VL: NIMMTQSPSSLAVSAGEKVTMSCKSSQSVLHSSNQKNYLAWYQQKPGQSPKLLIYWASTRESGVPDRFTGSGSGTDFTLTISSIQAEDLAVYYCHQYFSLWTFGGGTKLEIK | 
14 | binds |  |  |  | 18B6 (antibody, V domains shown, Mouse hybridoma antibody purified on Protein A) VH: QVQLQQSGAELVKPGASVKLSCKASGYTFTNYYIYWMKQRPGQGLEWIGEINPSNGGTNFNEKFKSKATLTVDKSSSTAYMQLSSLTSEDSAVYFCSREEIHYGYDKGFAYWGQGTLVTVSA VL: NIMMTQSPSYLAVSAGEKVTMSCKSSQSVLNSSNQKNYLAWYQQKPGQSPKLLIYWASIRESGVPDRFTGSGSGTDFTLTISSVQAEDLAVYFCHQYFSSWTFGGGTRLEIK | 
15 |  | 0.0149 | 2.2e-05 | 1.47e+06 | hu10C2-hIgG4 (antibody, V domains shown, also called 10C2人源化抗体) VH: QVHLVQSGAEVKKPGSSVKVSCKAPGYTFSSYWIEWVRQAPGQGLEWIGEILPGSGNTNYNEKFKGRATFTADTSTSTAYMELSSLRSEDTAVYYCASPSSTVDYAMDYWGQGTLVTVSS VL: EIVLTQSPGTLSLSPGERATLSCRASRSVSTSGYNYMHWYQQKPGQAPRLLIFLASNLESGIPDRFSGSGSGTDFTLTISRLEPEDFAVYYCQHSRELPYTFGQGTKLEIK | IC50, STAT3 luciferase reporter in DLD1-IL-11R-pSTAT3-Luc cells [2]: 4.86 ng/mL; EC50 [3]: 0.0659 µg/mL; IC50 [5]: 0.0811 µg/mL
16 | binds |  |  |  | 10C2 (antibody, V domains shown, Mouse hybridoma antibody purified on Protein A; also called 鼠源10C2) VH: QVHLQQSGTELMKPGASVKISCKAPGYTFSSYWIEWVKQRPGHGLEWIGEILPGSGNTNYNEKFKGKATFTADTSSNTAYMQLSSLTSEDSAVYYCASPSSTVDYAMDYWGQGTSVTVSS VL: DIVLTQSPASLGVSLGQRATISCRASRSVSTSGYNYMHWYQQKPGQPPKLLIFLASNLESGVPARFSGSGSGTDFTLNIHPVEEEDAATYHCQHSRELPYTFGGGTKLEIK | 
17 | binds |  |  |  | 26A6 (antibody, V domains shown, Mouse hybridoma antibody purified on Protein A) VH: QIQLVQSGPELKKPGETVKISCKASGYTFTNYGMNWVKQAPGKGLKWMGWINTNTGETTYAEEFKGRFAFSLEASVSTAHLQINNLKNEDTATYFCAKEDFYGMDYWGQGSSVTVSS VL: NIVMTQTPKFLLVSAGDRVTMTCKASQSVSNDVVWYQQKPGQSPKLLIYYASNRYTGVPDRFIGSGYGTEFTFTISTVQAEDLAVYFCQQDYSFPYTFGGGTKLEIK | 
18 | binds |  |  |  | 14F6 (antibody, V domains shown, Mouse hybridoma antibody purified on Protein A) VH: EVKLEESGGGLVQPGGSMKLSCVASGFTFSKYWMNWVRQSPEKGLEWVAEIRLKSDNYATQYAESVKGRFTMSRDDSKSSVYLQMKNLRAEDSGIYYCTKEGYDGYAMDYWGQGTSVTVSS VL: RIVMTQTPKFLLVSAGDRVTITCKASQNINNDVVWYQQKPGQSPKLLIYYASNRYTGVPDRFTGSGYGTDFTFTISTVQAEDLAVYFCQQDYISPWTFGGGTKLEIK | 
19 |  |  |  |  | Control-3C6 (antibody, V domains shown) VH: EVQLVQSGAEVKKPGASVKISCKASGYTFTDYNMDWVKQAPGQRLEWIGDINPHNGGPIYNQKFTGRATLTVDKSASTAYMELSSLRSEDTAVYYCARGELGHWYFDVWGQGTTVTVSS VL: DIVLTQSPASLALSPGERATLSCRASKSVSTSGYSYIHWYQQKPGQAPRLLIYLASNLDSGVPARFSGSGSGTDFTLTISSLEEEDFATYYCQHSRDLPPTFGQGTKLEIKR | IC50, STAT3 luciferase reporter in DLD1-IL-11R-pSTAT3-Luc cells [2]: 178 ng/mL; EC50 [3]: 22.5 µg/mL; IC50 [5]: 4.19 µg/mL
20 | binds |  |  |  | 14E1 (antibody, V domains shown, Mouse hybridoma antibody purified on Protein A) VH: EVQLQQSGPVLVKPGASVKMSCKASGYTFTDYYMNWVKQSHGKSLEWIGVFNPYNGGTVYNQKFKGKATLTVDKSSSTAYMELSSLTSEDSAVYYCAREDYGSYYVVFDYWGQGTTLTVSS VL: QIVLSQSPAILSASPGEKVTMTCRASSSVSYMHWYQQKPGSSPKPWIYATSNLASGVPARFSGSGSGTSYSLTISRVEAEDAATYYCQHWSSNPLTFGAGTKLELK | 
21 | binds |  |  |  | 16F3 (antibody, V domains shown, Mouse hybridoma antibody purified on Protein A) VH: QVQLQQSGAELVRPGVSVKISCKGSGDTFTDYAMHWVKQSHAKSLEWIGVISTYYGDVSYNQKFKGKATMTVDKSSSTAYMELVRLTSEDSAIYYCARGYYDYAWFAYWGQGTLVTVSA VL: QIVLTQSPAIMSASPGEKVTMTCSASSSLNYMHWYQQKSGTSPKRWIYDTSKLASGVPARFSGSGSGTSYSLTISSMEAEDAATYYCQQWSSNPLTFGAGTKLELK | 
22 | binds |  |  |  | 4A2 (antibody, V domains shown, Mouse hybridoma antibody purified on Protein A) VH: QVQLQQSGGELVRPGVSVKISCKGSGYKITDYAMHWVKQSHAESLEWIGVISSYYGDTSYNQKFKGKATMTVDISSSTAYMEIARLTSEDSAIYYCAIGLWDVGYFDYWGQGTTLTVSS VL: QIVLTQSPAIMSASPGEKVTMTCSASSSVSYMQWYQQKSGTSPKRWIYDTSKLASGVPARFSGSGSGTSYSLTISSMEAEDAATYYCQQWVSKAVTFGSGTKLEIK | 
